From patent publication US20110105397A1, “METHOD FOR TREATING HEART FAILURE WITH STRESSCOPIN-LIKE PEPTIDES” (priority 2009, published 2011) come the findings set out here.

Where no end group is shown, it is not given here. Side-chain parts run from the residue outwards. acetamide = acetamide linker between the Cys residue and the PEG

One series addresses T1, human CRHR2 (Homo sapiens, UniProt Q13324).
T1 construct: expressed in transfected cells
T1 sequence (Q13324 1-411): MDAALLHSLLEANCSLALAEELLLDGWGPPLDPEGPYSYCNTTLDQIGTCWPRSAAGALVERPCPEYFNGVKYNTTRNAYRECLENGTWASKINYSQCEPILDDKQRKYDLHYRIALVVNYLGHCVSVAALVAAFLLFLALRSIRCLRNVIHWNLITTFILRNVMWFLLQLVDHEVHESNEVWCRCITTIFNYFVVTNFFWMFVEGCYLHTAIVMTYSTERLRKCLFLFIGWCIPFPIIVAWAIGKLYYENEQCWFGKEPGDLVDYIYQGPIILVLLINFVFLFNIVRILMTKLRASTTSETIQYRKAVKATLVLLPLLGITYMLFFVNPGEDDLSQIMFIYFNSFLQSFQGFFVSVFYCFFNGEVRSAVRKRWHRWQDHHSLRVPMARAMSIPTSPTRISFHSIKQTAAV
Nature of the series: cAMP assay, h-CRHR2 transfected SK-N-MC cells. The class given is cell-based. The method, boiled down: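 SK-N-MC cells stably expressing human CRHR2 were treated with peptides (1 pM to 1 μM) for 60 min at 37 °C in IBMX-containing medium, with 10 μM forskolin as positive control. Cells were lysed with 0.5 M HCl and cAMP measured by [125I]-cAMP competition flash plate. A50 came from Hill-equation fits, normalised to h-SCP maximum.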

The subject of the next series is HF dogs. Nature of the series: Single SC bolus injection in HF dogs. Format: in vivo, dog. The procedure:
After reaching a steady state plasma concentration, the heart rate remained fairly stable. […] The target plasma concentration of about 60 ng/mL is reached in about 2 hours and 10 minutes after the time point of injection, then leveling off at about 100 ng/mL after about 3, still maintaining its level at about 6 hours after injection. The stresscopin-relative concentration of 60 ng/mL and of 100 ng/mL of a SEQ ID NO:102 peptide is 600 pg/mL and 1000 pg/mL, respectively.

Series [1] in a line: Nonclinical pharmacokinetics in rats. Also noted: species or system rat. Conditions: rat, in vivo; for % F (Bioavailability) / AUC0-∞ / Tmax: sc. The method, then:
(§1) A sandwich immunoassay was developed using an affinity purified goat polyclonal antibody, specific to h-SCP that was pre-coated onto a microplate with integrated electrodes. h-SCP molecules present in the sample will bind to the capture polyclonal antibody coated on the plate. After washing away any unbound substances, a sulfo-tagged mouse monoclonal anti-h-SCP antibody was added. This conjugated antibody will bind to the h-SCP molecules captured on the microplate and the quantity of analyte was determined by electrochemiluminescence. The amount of signal generated is directly proportional to the h-SCP concentration in the sample or standard. The standard curve range is 3.125-1600 pg/mL with a quantifiable range from 10-800 pg/mL. A sample volume of 25 μL (in duplicate) is required for this assay. This immunoassay is specific for human and dog stresscopin and human urocortin III (h-UCN3). […] After completion of the analysis, based on a comparison of reference standards between the ELISA and HPLC method, a correction factor of 1.57 was applied to all bioanalytical data.
(§2) The nonclinical pharmacokinetics of h-SCP (SEQ ID NO:1) and pegylated stresscopin-like peptides were studied in rats, dogs, and cynomolgus monkeys (cyno). Nonclinical pharmacokinetic studies focused on characterization of IV infusion at pharmacologically relevant dose levels, supplemented with IV and SC bolus and toxicokinetic analysis.

Series [2] is described as follows: Nonclinical pharmacokinetics in dogs. Also noted: species or system dog. Conditions: dog, in vivo. The method, then:
as §1, §2

Series [3] addresses T2, human corticotrophin releasing hormone receptor type 2 (CRHR2) (human) (UniProt Q13324).
T2 sequence (looked up): T1 sequence (Q13324 1-411)
Nature of the series: cell-based or functional assay.

Series [4] has as its target T3, human corticotrophin releasing hormone receptor type 1 (CRHR1) (human, UniProt P34998 24-415).
T3 construct: whole, on cells; cAMP assay on whole cells; radioligand assay on cell membranes; also called h-CRHR1; CRH receptor type 1
T3 sequence (looked up): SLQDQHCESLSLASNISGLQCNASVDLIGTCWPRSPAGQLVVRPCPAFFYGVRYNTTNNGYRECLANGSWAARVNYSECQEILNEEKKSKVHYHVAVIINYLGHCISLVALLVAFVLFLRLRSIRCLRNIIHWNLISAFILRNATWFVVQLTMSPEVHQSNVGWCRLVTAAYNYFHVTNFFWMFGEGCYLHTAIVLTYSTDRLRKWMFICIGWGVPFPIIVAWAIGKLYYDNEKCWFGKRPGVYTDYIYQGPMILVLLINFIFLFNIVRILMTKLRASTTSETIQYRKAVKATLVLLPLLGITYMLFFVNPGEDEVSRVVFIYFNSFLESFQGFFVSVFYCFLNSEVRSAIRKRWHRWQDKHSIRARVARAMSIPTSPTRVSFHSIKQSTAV
Nature of the series: radioligand competition against [125I]-(Tyr0)-sauvagine, CRHR1 assay, cell membranes. The method, then: Frozen cell pellets were defrosted on ice in 15 ml of assay buffer that was composed of 10 mM HEPES, 130 mM NaCl, 4.7 mM KCl, 5 mM MgCl₂, and 0.089 mM bacitracin at pH 7.2 and 21±3° Celsius. The solution was then homogenized with a Polytron tissue grinder at a setting of 10 and 7×3 s (Brinkmann Instruments, Westbury, N.Y.). The homogenate was centrifuged at 4° Celsius at 800×g for 5 min with the pellet being discarded. The supernatant was re-centrifuged at 26,892×g for 25 min at 4° Celsius with the final pellet being re-suspended in assay buffer. All binding assays were conducted in 96-well Multiscreen GF/B filter plates (Millipore, Billericay, Mass., U.S.A.) that were pre-soaked in assay buffer with 0.3% PEI for 1 hour. […]
The bound radioactivity was separated by filtration using a Multiscreen Resist manifold (Millipore Corp., Billerica, Mass., U.S.A). The filters were washed three times with ice-cold PBS at pH 7.5 and radioactivity retained on the filters was quantified by its liquid scintillation measured by a TopCount counter (Packard BioScience, Boston, Mass., U.S.A). […]
Data from individual competition curves were expressed as the percentage of specific [¹²⁵I]-anti-sauvagine-30 or)[¹²⁵I]-(Tyr⁰-sauvagine binding (B) within each experiment.

Series [5] addresses T2, human corticotrophin releasing hormone receptor type 2 (CRHR2) (human). Nature of the series: radioligand competition against [125I]-anti-sauvagine-30, membranes of SK-N-MC cells with human CRHR2. (In general: Loss of bound radioactivity is the signal in a displacement assay; it reports binding, not function.)

In the case of “TKFTLSLDVPTNIMNLLFNIAKAKNLRC(-IA-PEG MW20000)QA AANAH LMAQI-NH2 (TKFTLSLDVPTNIMNLLFNIAKAKNLRC([acetamide-PEG 20 kDa])QAAANAHLMAQI-NH2) [SEQ ID NO: 102]”, the “pA50 in the presence of anti-sauvagine-30” value in the series with human CRHR2 (100 nM anti-sauvagine-30, maximal response constrained to 100%) is recorded as ~6.89. Further, the “agonist potency ratio to stresscopin of SEQ ID NO:1 reduced by a factor” value with human CRHR2 (10^(9.40-8.15)) came out at 17.78. For the same molecule, the nH in the series with human CRHR2 (Table 14) turned out to be 1.05. This molecule also registered a pA50 in the series with human CRHR2 (Table 14) of 8.15. Moreover, in the series with human CRHR2 (Table 14, % of the maximum response obtained to h-SCP), the αmax was determined as 111.1%. The heart rate entry in the series on HF dogs (HF dogs, bolus SC injection 30 μg/kg) is reported as “declined over the first few hours”. Besides, the “LVEF and CO performance” value in the series on HF dogs (HF dogs, bolus SC injection 30 μg/kg, up to 4 hours) is “significantly increased”. Besides, the results for the stresscopin-relative concentration in the series on HF dogs (of 60 ng/mL of SEQ ID NO:102 peptide) and with HF dogs (of 100 ng/mL of SEQ ID NO:102 peptide) were 600 pg/mL and 1000 pg/mL, respectively. Besides, the “Vz (volume of distribution)” value in series [1] (iv, 15 ug/kg) came to 0.51 ± 0.023 L/kg; in series [2] (iv, 15 ug/kg), 0.034 ± 0.007 L/kg. The “% F (Bioavailability)” value in series [1] (15 ug/kg) came to 36%; in series [1] (150 ug/kg), 20%; in series [2] (sc, 5 ug/kg), 71%; in series [2] (sc, 15 ug/kg), 41%. Besides, the “AUC0-∞” value in series [1] (15 ug/kg) was 342 ± 107 ng·h/mL; in series [1] (150 ug/kg) it was 1914 ± 464 ng·h/mL; in series [2] (sc, 5 ug/kg), 3510 ± 270 ng·h/mL; in series [2] (sc, 15 ug/kg) it was 6089 ± 1808 ng·h/mL. For the same molecule, the time to peak (Tmax) (as a rule, the time from dosing to the highest level) in series [1] (15 ug/kg) was determined as 7 ± 1 h; in series [1] (150 ug/kg), 6.3 ± 1.8 h; in series [2] (sc, 5 ug/kg), 32 ± 8 h; in series [2] (sc, 15 ug/kg), 5 ± 1 h. Besides, the Cmax (in general, the maximum level reached in the sampled fluid or tissue) in series [2] (sc, 5 ug/kg) is 24.6 ± 2.6 ng/mL.
Consider FHLLRKMIEIEKQEKEKQQAANNRLLLDTI-NH2 (also called SV30; AS-30) [anti-sauvagine-30], for which, in series [3], the pA2 (antagonism of the cAMP response to h-SCP) is 7.82 -log10(M). Besides, the figures for the pKI in series [4] and in series [5] were 5.81 -log10(M) and 7.78 -log10(M), respectively.
